From the supplement of paper PMC12042874
± gives the uncertainty stated by the source.

Experiment: amyloid nucleation score (Sup35N fusion, yeast selection) (log enrichment); library NNK1; higher = more nucleation; inactive = no reads after selection
Procedure, shortened: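 On medium lacking adenine and uracil, psi-negative yeast expressing peptides of 20 random codons fused to Sup35N were grown 7 days at 30°C after a 24-hour induction with 100 μM copper sulfate. Illumina sequencing of input and output plasmid inserts gave the reads, and sequences under 100 input reads were excluded. The nucleation score is the DiMSum log enrichment of output over input reads, centred on the mode score of non-aggregating sequences.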

Substance | amyloid nucleation score
KDISITCLLYPKNHSGYSGT | 0.058 ± 0.25
TSRGKDLSTRVGGGAPPGFR | -0.766 ± 1.6
LLLTWFFPQHASRVNMSYSS | 0.024 ± 0.39
SVSILP | -0.34 ± 0.53
DFRWWYLFC | 1.11 ± 0.26
CSTRLSSKFSDTIYVEVFSF | inactive
RGEILCWWIGFYFVAVK | 0.149 ± 0.32
MVIRYFCQESA | -0.799 ± 1.1
LKSSNVPTRNVMRYMPSAFE | -0.292 ± 0.59
GPDRLMDILAMPGGYSMLSM | 1.03 ± 0.54
RMLDY | 0.318 ± 1.2
LYFVLPTNKLPDRSY | -0.403 ± 0.84
NHFLRSNNKYLSWGKTYIAP | -0.846 ± 2.4
AKRLWIQLRGVHSRMLTGYY | -0.244 ± 1.5
LLVLYCALLMRLSGLGHAWG | -0.269 ± 0.51
RSRSGC | 0.441 ± 0.51
YVSEEMNGLVMYQSNWGSVT | 0.224 ± 0.54
CSPLVGMTGAMLTVRGSISR | 0.019 ± 1
LRPSPKVWHDFWGMM | 0.437 ± 0.47
LMHRFPSINRLHTAPMPRAT | 0.58 ± 1.1
MNVFVSRNYVYLKYEFRSLA | 6.642 ± 0.051
VCSLSVYRTCSRDLFNFIWV | 0.262 ± 0.41
AVIFVVLKMSFSISECDDEW | inactive
SGTRFLFEPSELINPYNHRC | 1.15 ± 0.68
HCHSPATKPALTLMMY | -0.738 ± 0.93

Substance | amyloid nucleation score
AYAVVGAM | 0.604 ± 0.69
VLGSKKWDDLGYLYCRLCTH | 0.64 ± 0.65
GFHSQG | -0.172 ± 0.41
ILSYVTVDPAKVNYIFREWF | -1.03 ± 0.76
TVMTRRSLWRTVGLNWVMLV | 1.53 ± 0.19
VFGLAV | -0.912 ± 1.1
RLNWVYSRNNASLSGVYMKR | 0.116 ± 0.24
PRYMTLGVVWSMSGWSESVQ | 1.04 ± 0.52
LVNRVKRCAMNVHLSIGGDR | -0.479 ± 0.44
QTCAYGLRNTTSTVCLYRWG | 0.294 ± 0.53
VNSVWNGNR | -0.218 ± 0.71
TMRSNRLFRICFCLGKKYWL | -0.562 ± 0.33
AFRRRGSVPRGRASPHIFVV | 7.948 ± 0.065
RWVTLCRWVNVSSDGELGVR | 0.993 ± 0.35
HEFNR | -0.936 ± 1.6
VVTDF | inactive
NTVCSAMRW | 4.14 ± 0.091
MLVLRMYYTRNS | 2.24 ± 0.23
HRRSTHGMYPVPYCSSINH | 0.687 ± 0.48
KRALQDRMLLEP | -0.286 ± 1
LNCNV | 1.24 ± 0.76
RSQKLGHIGRDTLQWGLYCS | -0.024 ± 0.38
CNTPSTCNCVIVRPSYPSQY | -0.088 ± 0.61
GFYRGVTTIFCSVFI | 7.777 ± 0.07
QFTRLCMLRNTLFTVVENQA | 0.383 ± 0.65

Substance | amyloid nucleation score
YRNEESVSKSHGCHDMSWFA | 0.505 ± 0.54
RSMSTIRIEGSESTSFISS | -0.812 ± 1.7
VIAMDNDRYFGSVFSYIRMN | -0.147 ± 0.29
LDYSSRSPLTDLST | 0.041 ± 0.65
DFFRSANMYLGFASGGEGNG | 0.77 ± 0.52
HEGRS | -1.25 ± 1.2
MGLGVRVEKSSCACG | 0.841 ± 0.37
SAYPCCLSEDYVSSSGVSNK | 0.74 ± 0.48
YMLMKGSVRYH | 2.49 ± 0.2
SMFLLRPYRVCFCSRRFVTV | 0.253 ± 0.77
GEKWMLEVASFICKSGFRVC | -0.535 ± 1.7
VQCFLAQRSVDSGATELIIV | 0.114 ± 0.59
FDITRGRSTSYLIERRRTWG | 0.79 ± 0.82
MWVLRPCCHFAVCRGIKVSR | -0.046 ± 0.53
KLMVHRNDRNPMY | -0.318 ± 0.63
LGTVRVLEHEVVWHYVLEAR | 0.485 ± 0.6
VKQTGLVARMRWVTGLARDG | -0.921 ± 1.3
GGHFWWNTGQARVNWTIRLE | 0.123 ± 0.48
NADMFRTVLMMMFPAFRLIR | 0.172 ± 0.22
TPNQSRFPNAVMTDTVTSFS | 0.214 ± 0.81
RLIHRPVWV | 0.526 ± 0.48
IVYIWFLSLNFSMMVSFRFP | 0.805 ± 0.29
IRLRMWDHRWSTKGGSHTFL | -1.36 ± 0.95
GICWLISCGRIVAGSSEQYV | 0.924 ± 0.3
STLLYGLLAYWTYGFAWLFF | inactive

Substance | amyloid nucleation score
LVPPVFRP | -1.11 ± 1.1
KCHRPWYSCLIC | 1.98 ± 0.61
PWSALTASGTKISSSKSRLG | -0.331 ± 0.93
LRDTRAWVLN | -0.295 ± 0.43
NRRMFV | -1.13 ± 0.48
SRWGPRL | -0.494 ± 0.71
STSATPYFSFRKIFMASAAS | -0.029 ± 0.57
VCGGETLPRVVSNGGRSPRV | 0.602 ± 0.35
LAKGGPL | -0.813 ± 0.54
VSTCAAR | -0.383 ± 0.95
LLDKISNRPTQYGTTVPPVP | 0.573 ± 0.45
IFGFVWDPKTNYMTGLFASI | -0.231 ± 0.5
KMRVHGLAVHRATQ | -0.737 ± 0.71
IAVSFSVVL | 5.49 ± 0.056
LYSCMRVVATATVSGGLVIE | -0.843 ± 0.69
IRGYGAWGQWGSYRFRESES | 1.6 ± 0.17
GYSLYRM | 6.746 ± 0.044
ECFDANIWFWSCPMVHYG | 0.904 ± 0.19
IIRRGSRSFYIFMVTFKRRN | 0.996 ± 0.52
AVVHSRYRVSVCGDQDLSPL | -0.086 ± 0.41
SDVKF | 2.95 ± 0.11
CVSPSVTNFAELVSIVISPS | 0.652 ± 0.66
GPTCDLRFAFNPHVTYGGHG | 1.29 ± 0.64
QTTTLYRFCCEWQSPASVVM | 0.333 ± 0.97
AFFNCPSTNTVWQRFNANRF | 1.72 ± 0.14

Substance | amyloid nucleation score
IRKHLDPGPSYRSSYLRGW | inactive
RLFPYQFM | -0.286 ± 0.63
LICNFRLSRYQSAVNVVYWV | 0.802 ± 0.14
GSMMWSMTADKLKFAGSVVC | 0.889 ± 0.54
SEEYWVLDWIEVGLKGSLRM | -0.105 ± 0.55
SYFRREDCFVFKVITLFIMS | -0.675 ± 0.46
FWKGASINYS | inactive
VCFMKCLLSCAIEYSRRLDI | 1.9 ± 0.64
CLWGILDEGRFGSWFNNFAS | 0.467 ± 0.9
YCQVYGSVWNFKRYYLATWS | -0.128 ± 0.55
VDCLGFLEHICGLGDIIKTK | 0.341 ± 0.25
PCQFMASSYFHK | inactive
EYLFLRRM | 2.92 ± 0.089
DHIEMFGKVGYYHNMILW | 0.762 ± 0.37
SSCSYLGRDRMCFWPYFLTT | 0.016 ± 0.39
VGRYFTMCFYKSMHRCRRVF | 0.266 ± 0.38
KDVMYTYFIAISDLGIRNPL | 1.3 ± 0.56
VSSTYNSFRFVSLGKFNHHC | 2.71 ± 0.17
SYSYRLQPFIAMLLGSFL | -1.04 ± 2.7
RFRNGLNLFRMSNMFSNLKH | -0.129 ± 1.1
SARRTPCTVIL | 0.362 ± 1.4
MVGYGECIDMWPMLVKVDVV | -0.378 ± 0.69
RGYQNSLFTGMRRSSGSWSI | 0.43 ± 0.77
YHGVTLVSLLRYKLW | 1.28 ± 0.27
QPSKCGAWGPLFIAGVGLTQ | 0.231 ± 0.33

Substance | amyloid nucleation score
CSTQRVPGGGLGKSWL | 0.18 ± 1.2
GAFGFITNRKRINCKLEDRD | -1.32 ± 2.4
WWHSL | 2.01 ± 0.62
SAVLFIEFCVLIVVMFSIMM | -0.241 ± 1.2
KLSYFSQEKRDNWPISRLPS | 0.072 ± 0.3
DSWIQHGGCEFVLIVRRHFI | 0.714 ± 0.97
NKLCTR | inactive
RVTPISCKYVLLTPMRLKNR | 2.35 ± 0.3
AWNRYIFIPTLEFTVLCMWC | 6.139 ± 0.058
GSSAFRINLFFLSIVGYRRS | 5.61 ± 0.062
PVARTPHWVLAVRWHALIWG | 1.4 ± 0.29
LGFQLFNQGWAQNSTPRFSY | -1.29 ± 1.9
YWVYSSRGCA | inactive
YQDVIPNPVHRYTV | 0.371 ± 0.31
LWHFWGYGGALP | -0.738 ± 0.75
DTNIHRVEFLISFFGRELSQ | inactive
FMLCNFLVVIYSGSR | 5.82 ± 0.063
NWRQEYVFAY | -1.37 ± 2.4
NMFMIV | -1.05 ± 1.3
LFNGLYHLVMRVMWRRLV | -0.061 ± 1.2
SGGPGDAGRLRQ | -0.005 ± 0.91
YWSFGGWVAQRVCMESVFVK | -2.27 ± 1.6
VLSRIHCCRTPVDNGFRPQG | -0.95 ± 0.94
TDYRFTRVWRRGVARS | 0.707 ± 0.55
RYSSLRWTISFDNLVVSFRP | 0.724 ± 0.68

Substance | amyloid nucleation score
FENCHHYGTARFKDLPRSIV | -0.208 ± 0.66
KFTFDS | 1.52 ± 0.35
NYEYRDYASDERLYGSGTML | 0.103 ± 0.37
LRYFGL | inactive
SFVVTAEPSRAMNYSCFWKR | inactive
MRYVMTFFFHSYKA | -1.15 ± 0.91
MDCTFINGFRVFNLSNSR | 7.967 ± 0.059
EDSGNVIGEYFWKF | -1.44 ± 1.9
GYISRHNAGSSAPVNVVRLR | -0.223 ± 0.65
FSGCQSARGKLWVSDWEL | inactive
CIGWSNGAPRCNQGRQRDRG | 0.828 ± 0.66
GEVFFLVRSSVVCWISLICA | -0.109 ± 0.39
LHESVFSWSSKLSLRHGYLR | 0.159 ± 0.7
STRYRPLNWYLTKPPVRFKM | -0.037 ± 0.56
VVSSAEQVHLGVVNGRRFLL | -0.003 ± 0.74
FKVKIVKCLGMFLLTIASLL | 1.07 ± 0.39
RVSLSCIMKIYNFDKRVWLG | 0.521 ± 0.97
TAYSNG | -0.814 ± 0.74
PFIWDDLAETVLNK | 0.144 ± 0.27
WVLNG | -0.514 ± 0.34
VHLTSPYHCRVPDMNSCYGS | 0.371 ± 0.91
CLYWFLKEHFC | 1.06 ± 0.78
RTSSWPTLTHEALLRSGDLC | -0.637 ± 0.48
